From patent publication US20200332009A1 (Innovent, published 2020)
Changes are numbered by the printed parent chain. Names and notes keep the numbering of the source. Where two headings read alike, the source gives them in different places.

T1: human LAG-3-His (human, UniProt P18627 23-450)
T1 construct: also called hLAG-3; human LAG-3 antigen (ArcoBiosystems); not shown: His tag
T1 sequence (looked up): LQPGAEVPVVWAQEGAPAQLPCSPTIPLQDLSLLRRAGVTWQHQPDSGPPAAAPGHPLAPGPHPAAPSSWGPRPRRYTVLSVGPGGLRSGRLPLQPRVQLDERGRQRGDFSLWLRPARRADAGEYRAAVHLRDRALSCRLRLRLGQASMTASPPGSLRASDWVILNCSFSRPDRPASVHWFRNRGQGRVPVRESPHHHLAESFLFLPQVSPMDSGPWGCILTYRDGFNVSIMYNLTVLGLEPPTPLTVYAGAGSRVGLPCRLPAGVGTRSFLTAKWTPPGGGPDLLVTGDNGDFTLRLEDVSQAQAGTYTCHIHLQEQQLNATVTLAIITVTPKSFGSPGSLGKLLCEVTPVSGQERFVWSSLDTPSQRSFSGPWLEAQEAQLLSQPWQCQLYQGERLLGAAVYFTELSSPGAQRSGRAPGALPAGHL

B1: HZ3266-IgG1N297A (antibody)
heavy: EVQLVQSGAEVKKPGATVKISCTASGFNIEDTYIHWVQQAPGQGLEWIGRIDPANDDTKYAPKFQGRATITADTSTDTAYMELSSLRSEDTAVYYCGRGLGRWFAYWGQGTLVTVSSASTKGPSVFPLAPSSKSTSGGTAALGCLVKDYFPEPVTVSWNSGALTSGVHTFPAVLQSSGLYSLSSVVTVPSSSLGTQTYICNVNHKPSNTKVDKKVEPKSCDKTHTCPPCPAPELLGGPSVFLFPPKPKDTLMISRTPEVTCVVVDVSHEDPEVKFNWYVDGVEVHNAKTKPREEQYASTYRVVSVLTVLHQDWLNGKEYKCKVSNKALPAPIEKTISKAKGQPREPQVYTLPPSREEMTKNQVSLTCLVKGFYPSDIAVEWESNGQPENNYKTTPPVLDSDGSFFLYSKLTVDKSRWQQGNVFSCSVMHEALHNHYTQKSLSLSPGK
light: GIVMTQSPDSLAVSLGERATINCKASQDVINAVAWYQQKPGQSPKLLIYSASNRYTGVPDRFSGSGSGTDFTLTISSLQAEDLAVYYCQQHYSPPLTFGGGTKVEIKRTVAAPSVFIFPPSDEQLKSGTASVVCLLNNFYPREAKVQWKVDNALQSGNSQESVTEQDSKDSTYSLSSTLTLSKADYEKHKVYACEVTHQGLSSPVTKSFNRGEC
notes: Humanized form of 3-266.1, human IgG1 with N297A, kappa
B2: HZ3266-IgG1 (antibody)
heavy: not shown
light: B1 light
notes: Humanized form of 3-266.1, human IgG1, kappa
B3: HZ4485-IgG1N297A (antibody, V domains shown)
VH: QVQLVQSGAEVAKPGASVKVSCKASGYTFTTYTMHWVRQRPGQGLEWIGNINPNSDYAIYAQKFQGRATMTADKSTNTAYMELSSLRSEDSAVYYCAKQSFDYWGQGTLVTVSS
VL: DIVLTQSPASLAVSPGQRATITCRASESVEFYGTSLLQWYQQKPGQPPKLLIYAASNVESGVPARFSGSGSGTDFTLTINPVEADDTANYYCHQGRKVPYTFGQGTKLEIKR
notes: Humanized form of 4-48.5, human IgG1 with N297A, kappa
B4: 4-26.6 (antibody, human IgG1, kappa, N297A, V domains shown)
VH: QVQLKESGPSLVKPSQTLSLTCSVTGDSITSGYWNWIRKFPGNKLEYMGYISYSGSTYHNPSLKSRISITRDTSKNQFYLQLNSVTKEDTATYYCARGDLWPPWFAYWGQGTLVTVSA
VL: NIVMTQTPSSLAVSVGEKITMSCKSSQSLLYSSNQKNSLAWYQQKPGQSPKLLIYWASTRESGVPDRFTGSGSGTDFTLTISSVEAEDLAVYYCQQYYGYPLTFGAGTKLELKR
notes: Same remark on anti-mouse detection reagents as for 3-266.1; also called chimeric antibody 4-26.6
B5: 4-79.2 (antibody, human IgG1, kappa, N297A, V domains shown)
VH: EVQLQQSGPSLVKPSQTLSLTCSVTGDSITSGYWNWIREFPGNKLEYLGYISYTGSTYYNPSLKSRISITRDTSKNQYSLQLNSVTTEDTATYYCAKAPRWLSAMDYWGQGTSVTVSS
VL: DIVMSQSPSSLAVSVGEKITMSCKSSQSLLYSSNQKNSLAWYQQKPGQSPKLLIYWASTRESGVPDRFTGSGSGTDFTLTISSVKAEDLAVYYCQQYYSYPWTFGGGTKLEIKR
notes: Same remark on anti-mouse detection reagents as for 3-266.1; also called chimeric antibody 4-79.2
B6: 3-266.1 (antibody, human IgG1, kappa, N297A, V domains shown)
VH: EVQLQQSVAELVKPGASVKLSCTASGFNIEDTYIHWVKQRPEQGLEWIGRIDPANDDTKYDPKFQGKATITADTSSNTAYLQLSSLTPEDTAVYYCGRGLGRWFAYWGQGTLVTVSA
VL: SIVMTQSHKFMSTSIGDRVNISCKASQDVINAVAWCQQKPGQSPKLLIYSASNRYTGVPDRFTGSGSGTDFTFTISSVQAEDLAVYYCQQHYSPPLTFGGGTKLELKR
notes: also called chimeric antibody 3-266.1
B7: HZ3266-IgG4PAAK (antibody)
heavy: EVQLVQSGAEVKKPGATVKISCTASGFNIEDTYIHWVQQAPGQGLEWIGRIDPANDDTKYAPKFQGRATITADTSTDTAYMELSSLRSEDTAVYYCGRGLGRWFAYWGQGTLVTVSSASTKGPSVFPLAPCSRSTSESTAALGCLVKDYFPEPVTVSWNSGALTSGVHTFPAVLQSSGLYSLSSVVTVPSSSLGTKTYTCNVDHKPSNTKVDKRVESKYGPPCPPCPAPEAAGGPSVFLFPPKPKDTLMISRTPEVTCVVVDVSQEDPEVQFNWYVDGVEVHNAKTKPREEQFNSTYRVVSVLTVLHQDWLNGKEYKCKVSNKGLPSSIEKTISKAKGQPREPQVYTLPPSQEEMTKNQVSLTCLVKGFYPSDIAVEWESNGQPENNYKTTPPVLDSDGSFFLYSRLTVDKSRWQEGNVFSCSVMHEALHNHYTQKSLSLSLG
light: B1 light
notes: Humanized form of 3-266.1, mutated human IgG4 constant region, kappa; also called HZ3266-G4PAAK; HZ3266-IgG4PAK
B8: ADI-31853 (antibody, human IgG4 S228P, kappa, F234A L235A, V domains shown)
VH: QLQLQESGPGLVKPSETLSLTCTVSGGSIYSESYYWGWIRQPPGKGLEWIGSIVYSGYTYYNPSLKSRVTISVDTSKNQFSLKLSSVTAADTAVYYCARVRTWDAAFDIWGQGTMVTVSS
VL: DIQMTQSPSSLSASVGDRVTITCQASQDISNYLNWYQQKPGKAPKLLIYDASNLETGVPSRFSGSGSGTDFTFTISSLQPEDIATYYCQQVLELPPWTFGGGTKVEIKR
notes: also called anti-human-LAG-3 antibody
B9: 4-48.5 (antibody, human IgG1, kappa, N297A, V domains shown)
VH: EVQLQQSGAELARPGASVKMSCKASGYTFTTYTMHWVKQRPGQGLEWIGNINPNSDYAIYNQKFKDKATLTADKSSNTAYMQLSGLTSEDSAVYYCAKQSFDYWGQGTTLTVSS
VL: B3 VL with P15L, T22S, T76S, T78N, N80H, A84V, T87V, N89L, Y91F, Q104G
notes: Same remark on anti-mouse detection reagents as for 3-266.1; also called chimeric antibody 4-48.5

Assays:
[1] = target: PD-L1 on CHOK1-PDL1 cells (Promega PD-1/PD-L1 Blockade Bioassay) (UniProt Q9NZQ7 19-290, limits assumed); assay: cell-based or functional assay
[2] = target: T2, human PD-L1 (purchased from Acrobiosystems) (human, UniProt Q9NZQ7 19-238); assay: biological optical interferometry (ForteBio), antibody on sensor, antigen in solution
T2 construct: also called hPD-L1
Experimental: (§1) SD buffer, antibodies, and antigens (including human PD-L1, mouse PD-L1 and Macaca fascicularis PD-L1, all purchased from Acrobiosystems) each of 100 μL were added to 96-well black polystyrene half area microplates (Greiner, 675076). The sensors were arranged according to the positions of the samples. The instrument settings were as follows: the operation procedures were Baseline, Loading ˜1 nm, Baseline, Association, and Dissociation. The run time of each procedure was dependent on the rates of association and dissociation. The rotation speed was 400 rpm, and the temperature was 30° C. The KD values were analyzed by ForteBio analysis software.
The equilibrium dissociation constant (KD) binding of the humanized antibodies of different Fc subtypes of the invention to human PD-L1 was determined by ForteBio. The ForteBio affinity assay was shown in Example 2.

[3] = target: T3, human PD-L1 overexpressed on CHO cells (CHO-PDL1) (human, UniProt Q9NZQ7 19-290); assay: flow cytometry (FACS) on CHO-PDL1 cells
T3 construct: whole, on cells; also called CHO cells overexpressing human PD-L1

[4] = target: T2, human PD-L1 (purchased from …); assay: biological optical interferometry (ForteBio), antibody on sensor, antigen in solution; remark: listed apart in the source
Experimental: The equilibrium dissociation constant (KD) for binding of the antibody of the invention to human PD-L1 was determined by biological optical interferometry (ForteBio). A ForteBio affinity assay of prior art was performed (Estep, P., et al, High throughput solution based measurement of antibody-antigen affinity and epitope binning. MAbs, 2013.5(2):270-8).
as §1

[5] = target: T3, human PD-L1 overexpressed on CHO cells …; assay: flow cytometry (FACS) on CHO-PDL1 cells; the table gives no unit, the axis is Con(nM); the text gives this value to 4-79.2
Experimental: (§2) CHO-PDL1 cells were counted, diluted to 1×10⁶ cells/mL, and added to each well of a U-shaped bottom 96-well plates at 100 μL/well. The suspension was centrifuged at 400 g for 5 min, and the supernatant was discarded. […] The cells were resuspended to a volume of 100 μL/well, and then left on ice for 30 min. The suspension was centrifuged at 400 g for 5 min, and the supernatant was discarded. The cells were washed once with PBS. The mixture was centrifuged at 400 g for 5 min, and the supernatant was discarded. 100 μL of FITC-labeled secondary antibody for anti-mouse-Fab (Jackson Immuno Research) (diluted in PBS in 1:500) was added per well, and 100 μL of FITC-labeled secondary antibody for anti-human-Fab (Jackson Immuno Research) was added to the cells to which the positive control antibody was added. The cells were incubated for 30 min on ice in the dark. The cells were centrifuged at 400 g for 5 min with the supernatant being discarded, and were washed once with a PBS. The cells were resuspended with 100 μL of 1×PBS, and detected by FACS.

[6] = target: T3, human PD-L1 overexpressed on CHO cells …; assay: flow cytometry (FACS) on CHO-PDL1 cells; the table gives no unit, the axis is Con(nM); the text gives this value to 4-26.6
Experimental: as §2

human LAG-3-His = target: T1, human LAG-3-His; assay: biological optical interferometry (ForteBio), antibody on AHQ tip, human LAG-3-His 100 nM in solution, univalent, 1:1 model
Experimental: The equilibrium dissociation constant (KD) for binding of ADI31853 to human LAG-3 (hLAG-3) was measured by biological optical interferometry (ForteBio). A ForteBio affinity assay of prior art was performed (Estep, P., et al, High throughput solution based measurement of antibody-antigen affinity and epitope binning. MAbs, 2013.5(2):270-8). Briefly, the sensor was equilibrated offline in assay buffer for 30 minutes, and on-line detection was then conducted for 60 seconds to establish a baseline. The purified antibody obtained as described above was loaded on-line onto an AHQ sensor (ForteBio) for ForteBio affinity assay. The sensor with the loaded antibody was then exposed to 100 nM of a human LAG-3 antigen (ArcoBiosystems) for 5 minutes before transferring the sensor to the assay buffer for dissociation for 5 minutes for dissociation rate measurement. Kinetic analysis was performed using a 1:1 binding model.

T2 sequence (Q9NZQ7 19-238 limits assumed): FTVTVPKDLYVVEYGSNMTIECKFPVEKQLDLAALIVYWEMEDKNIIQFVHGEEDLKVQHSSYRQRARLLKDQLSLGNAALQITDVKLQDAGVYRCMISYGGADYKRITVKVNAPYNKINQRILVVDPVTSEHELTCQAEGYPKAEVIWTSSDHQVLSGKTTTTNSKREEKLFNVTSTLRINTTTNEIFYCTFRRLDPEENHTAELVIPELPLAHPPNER
Chain of PD-L1 on CHOK1-PDL1 cells (Promega PD-1/PD-L1 Blockade Bioassay) (Q9NZQ7 19-290 limits assumed): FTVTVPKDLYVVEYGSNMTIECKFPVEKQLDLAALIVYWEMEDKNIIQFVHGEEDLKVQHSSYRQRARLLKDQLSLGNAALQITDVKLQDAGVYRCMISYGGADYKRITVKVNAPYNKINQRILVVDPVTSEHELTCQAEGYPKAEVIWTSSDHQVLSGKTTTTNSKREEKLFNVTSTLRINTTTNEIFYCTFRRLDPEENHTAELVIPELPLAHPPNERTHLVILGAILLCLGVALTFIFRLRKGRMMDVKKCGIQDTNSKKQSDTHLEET
T3 sequence (Q9NZQ7 19-290): as the sequence (Q9NZQ7 19-290 limits assumed) above

Row | Binder | EC50 of the NFAT luciferase reporter signal (blockade of PD-1 on Jurkat-PD1 cells binding PD-L1 on CHOK1-PDL1 cells) [1] | Kd [2] | EC50 [3] | Kd [4] | other results
1 | B1 | 0.967 nM | 0.724 nM | 1.78 nM |  | 
2 | B2 | 0.623 nM | 0.935 nM | 1.81 nM |  | 
3 | B3 | 0.683 nM | 3.17 nM | 1.56 nM |  | 
4 | B4 |  |  | 1.99 nM | 3.85 nM | EC50 [5]: 2.6 nM
5 | B5 |  |  | 2.6 nM | 7.56 nM | EC50 [6]: 1.99 nM
6 | B6 |  |  | 2.14 nM | 0.98 nM | 
7 | B7 |  | 1.32 nM | 1.86 nM |  | 
8 | B8 |  |  |  |  | Kd (human LAG-3-His): 0.622 nM; koff (human LAG-3-His): 0.0002 s⁻¹; kon (human LAG-3-His): 322000 M⁻¹ s⁻¹
9 | B9 |  |  | 2 nM | 1.23 nM | 
